According to patent publication US20230065562A1, “DUAL CONTROLS FOR THERAPEUTIC CELL ACTIVATION OR ELIMINATION” (Bellicum Pharmaceuticals, Inc., priority 2015, published 2023):
Substitutions are numbered along the chain they refer to. Names and notes keep the numbering of the source. “Also recorded” adds a separate entry of the source.

B1: F404W: modified iCasp9, F404W (protein)
chain: VDGFGDVGALESLRGNADLAYILSMEPCGHCLIINNVNFCRESGLRTRTGSNIDCEKLRRRFSSLHFMVEVKGDLTAKKMVLALLELARQDHGALDCCVVVILSHGCQASHLQFPGAVYGTDGCPVSVEKIVNIFNGTSCPSLGGKPKLFFIQACGGEQKDHGFEVASTSPEDESPGSNPEPDATPFQEGLRTFDQLDAISSLPTPSDIFVSYSTFPGFVSWRDPKSGSWYVETLDDIFEQWAHSEDLQSLLLRVANAVSVKGIYKQMPGCWNFLRKKLFFKTSASRA
B2: D327G: modified iCasp9, D327G (protein)
chain: B1 chain with D195G, W272F
B3: L329K: modified iCasp9, L329K (protein)
chain: B1 chain with L197K, W272F
B4: F406T: modified iCasp9, F406T (protein)
chain: B1 chain with W272F, F274T
B5: F326K: modified iCasp9, F326K (protein)
chain: B1 chain with F194K, W272F
B6: Q328K: modified iCasp9, Q328K (protein)
chain: B1 chain with Q196K, W272F
B7: F406L: modified iCasp9, F406L (protein)
chain: B1 chain with W272F, F274L
B8: Q328R: modified iCasp9, Q328R (protein)
chain: B1 chain with Q196R, W272F
B9: D327K: modified iCasp9, D327K (protein)
chain: B1 chain with D195K, W272F
B10: D327R: modified iCasp9, D327R (protein)
chain: B1 chain with D195R, W272F
B11: D330A-N405Q: modified iCasp9 double mutant (SEQ ID NO: 28) (protein)
chain: GFGDVGALESLRGNADLAYILSMEPCGHCLIINNVNFCRESGLRTRTGSNIDCEKLRRRFSSLHFMVEVKGDLTAKKMVLALLELARQDHGALDCCVVVILSHGCQASHLQFPGAVYGTDGCPVSVEKIVNIFNGTSCPSLGGKPKLFFIQACGGEQKDHGFEVASTSPEDESPGSNPEPDATPFQEGLRTFDQLAAISSLPTPSDIFVSYSTFPGFVSWRDPKSGSWYVETLDDIFEQWAHSEDLQSLLLRVANAVSVKGIYKQMPGCFQFLRKKLFFKTS
B12: F404A: modified iCasp9, F404A (protein, UniProt P55211 1-416, looked up, variant F404A)
chain: MDEADRRLLRRCRLRLVEELQVDQLWDALLSRELFRPHMIEDIQRAGSGSRRDQARQLIIDLETRGSQALPLFISCLEDTGQDMLASFLRTNRQAAKLSKPTLENLTPVVLRPEIRKPEVLRPETPRPVDIGSGGFGDVGALESLRGNADLAYILSMEPCGHCLIINNVNFCRESGLRTRTGSNIDCEKLRRRFSSLHFMVEVKGDLTAKKMVLALLELAQQDHGALDCCVVVILSHGCQASHLQFPGAVYGTDGCPVSVEKIVNIFNGTSCPSLGGKPKLFFIQACGGEQKDHGFEVASTSPEDESPGSNPEPDATPFQEGLRTFDQLDAISSLPTPSDIFVSYSTFPGFVSWRDPKSGSWYVETLDDIFEQWAHSEDLQSLLLRVANAVSVKGIYKQMPGCANFLRKKLFFKTS
modifications: FKBP12-F36V fusion (iCasp9), CARD deleted
B13: D315A: modified iCasp9, D315A (auto-proteolysis site) (protein, UniProt P55211 1-416, looked up, variant D315A)
chain: B12 chain with D315A, A404F
modifications: FKBP12-F36V fusion (iCasp9), CARD deleted
B14: C403P: modified iCasp9, C403P (protein, UniProt P55211 1-416, looked up, variant C403P)
chain: B12 chain with C403P, A404F
modifications: FKBP12-F36V fusion (iCasp9), CARD deleted
B15: F406W: modified iCasp9, F406W (protein, UniProt P55211 1-416, looked up, variant F406W)
chain: B12 chain with A404F, F406W
modifications: FKBP12-F36V fusion (iCasp9), CARD deleted
B16: G402Y: modified iCasp9, G402Y (protein, UniProt P55211 1-416, looked up, variant G402Y)
chain: B12 chain with G402Y, A404F
modifications: FKBP12-F36V fusion (iCasp9), CARD deleted
B17: F406A: modified iCasp9, F406A (protein, UniProt P55211 1-416, looked up, variant F406A)
chain: B12 chain with A404F, F406A
modifications: FKBP12-F36V fusion (iCasp9), CARD deleted
B18: G402I: modified iCasp9, G402I (protein, UniProt P55211 1-416, looked up, variant G402I)
chain: B12 chain with G402I, A404F
modifications: FKBP12-F36V fusion (iCasp9), CARD deleted
B19: N405T: modified iCasp9, N405T (protein, UniProt P55211 1-416, looked up, variant N405T)
chain: B12 chain with A404F, N405T
modifications: FKBP12-F36V fusion (iCasp9), CARD deleted
B20: N405A: modified iCasp9, N405A (protein, UniProt P55211 1-416, looked up, variant N405A)
chain: B12 chain with A404F, N405A
modifications: FKBP12-F36V fusion (iCasp9), CARD deleted

System: HEK293T/16 cells
Test: Secreted alkaline phosphatase (SEAP)-based surrogate killing assay of iCasp9 mutants
Assay type: cell-based, human
Details: for Basal Activity (relative to wild type/unmodified Caspase-9): SEAP assay without AP1903; for basal activity: relative SEAP activity Units: no AP1903
Experimental: Early passage HEK293T/16 cells (ATCC, Manassas, Va.) were maintained in IMDM, GlutaMAX™ (Life Technologies, Carlsbad, Calif.) supplemented with 10% FBS, 100 U/mL penicillin, and 100 […] until transfection in a humidified, 37° C., 5% CO2/95% air atmosphere. Cells in logarithmic-phase growth were transiently transfected with 800 ng to 2 μg of expression plasmid encoding iCasp9 mutants and 500 ng of an expression plasmid encoding SRα promoter driven SEAP per million cells in 15-mL conical tubes. […] GeneJammer® Transfection Reagent at a ratio of 3 μl per ug of plasmid DNA was used to transiently transfect HEK293T/16 cells in the absence of antibiotics. 100 μl or 2 mL of the transfection mixture was added to each well in 96-well or 6-well plate, respectively.
Briefly, after 65° C. heat denaturation for 45 minutes to reduce background caused by endogenous (and serum-derived) alkaline phosphatases that are sensitive to heat, 5 μl of supernatants was added to 95 μl of PBS and added to 100 μl of substrate buffer, containing 1 μl of 100 mM 4-methylumbelliferyl phosphate (4-MUP; Sigma, St. Louis, Mo.) re-suspended in 2 M diethanolamine. Hydrolysis of 4-MUP by SEAP produces a fluorescent […] with excitation/emission (355/460 nm), which can be easily measured. Assays were performed in black opaque 96-well plates to minimize fluorescence leakage between wells. […] of the mixture was seeded onto each well of a 96-well plate. […] For the assay, 4-methylumbelliferyl phosphate substrate was hydrolyzed by SEAP to 4-methylumbelliferon, a metabolite that can be excited with 364 nm and detected with an emission filter of 448 nm. Since SEAP is used as a marker for cell viability, reduced SEAP reading corresponds with increased iCaspase-9 activities.

Molecule | Basal Activity (relative to wild type/unmodified Caspase-9) | also measured
B1 | lowered basal activity; also recorded: Decreased | 
B2 | did not lower basal activity; also recorded: Increased | 
B3 | did not lower basal activity; also recorded: Increased | 
B4 | lowered basal activity; also recorded: Decreased | 
B5 | did not lower basal activity; also recorded: Increased | 
B6 | did not lower basal activity; also recorded: Increased | 
B7 | lowered basal activity and dead | 
B8 | did not lower basal activity; also recorded: Increased | 
B9 | did not lower basal activity; also recorded: Increased | 
B10 | did not lower basal activity; also recorded: Increased | 
B11 | intermediate; also recorded: Decreased | basal activity: relative SEAP activity Units (1 μg iCasp9 per million cells): 205772 Units; basal activity: relative SEAP activity Units (2 μg iCasp9 per million cells): 174366 Units; IC50 (AP1903, SEAP screening assay): 0.05 nM
B12 | lowered basal activity and dead | 
B13 | Decreased | Basal Activity (relative to wild type/unmodified Caspase-9) (listed as D315): reduced basal activity
B14 | catalytically inactive and dead | 
B15 | lowered basal activity; also recorded: Decreased | 
B16 | catalytically inactive and dead | 
B17 | lowered basal activity; also recorded: Decreased | 
B18 | dead | Basal Activity (relative to wild type/unmodified Caspase-9) (listed as G4021): catalytically inactive
B19 | increased basal activity | 
B20 | no effect | 
